No end group written: not given here.
B1: recombinant HCIQ2c1 Kunitz-type peptide from Heteractis crispa (peptide, UniProt A0A6B7FBD3 28-85, looked up)
chain: IQGNICSEPKKVGRCRGSFPRFYFDSETGKCTPFIYGGCGGNGNNFETLHACRAICRA
notes: HCIQ2c1, Kunitz-type peptide of the sea anemone Heteractis crispa; mature peptide of 58 aa (precursor 85 aa: signal peptide 22 aa, propeptide 5 aa ending in Lys-Arg at 26-27, mature peptide 58 aa); begins with Ile-Gln; measured mass 6330 Da; numbers count on: the mature protein; also called rHCIQ2c1; source: E. coli BL21 (DE3), thioredoxin fusion, purified (Ni-NTA, CNBr cleavage, RP-HPLC)

What was measured:
Details in all cases: both partners purified
trypsin = experiment: enzyme inhibition (Dixon method); trypsin 208 nM, substrate BAPNA 0.6 and 1.2 mM, peptide 0–26.6 µM (rHCIQ2c1) or 0–24 µM (rHCIQ4c7); three parallel experiments
[1] = biological target: T1, human neutrophil elastase (human, UniProt P08246 30-267); experiment: SPR; Biacore 3000; peptides covalently immobilised on a CM4 chip (970 RU rHCIQ2c1, 460 RU rHCIQ4c7); proteinases 1 nM to 5 μM flowed over; 25 °C; HBS: 0.15 M NaCl, 0.01 M HEPES, pH 7.4
T1 sequence (looked up): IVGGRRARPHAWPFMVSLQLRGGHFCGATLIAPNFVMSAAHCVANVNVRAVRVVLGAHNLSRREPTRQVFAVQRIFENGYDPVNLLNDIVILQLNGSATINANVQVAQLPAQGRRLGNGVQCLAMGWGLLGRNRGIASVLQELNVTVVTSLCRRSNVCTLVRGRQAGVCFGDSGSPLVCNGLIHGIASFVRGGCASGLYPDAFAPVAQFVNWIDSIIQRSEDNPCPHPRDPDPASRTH

[2] = biological target: B1; experiment: as above

trypsin, sequence (P00760 24-246): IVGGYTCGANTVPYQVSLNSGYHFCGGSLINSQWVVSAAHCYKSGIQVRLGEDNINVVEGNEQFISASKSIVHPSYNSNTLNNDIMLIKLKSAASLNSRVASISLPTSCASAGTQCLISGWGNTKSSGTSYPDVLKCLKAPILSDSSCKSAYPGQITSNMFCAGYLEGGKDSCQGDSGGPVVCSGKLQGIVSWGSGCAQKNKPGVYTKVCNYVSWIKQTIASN

Binder	Ki (trypsin) [nM]	Ka [1] [M⁻¹]	Kd [1] [nM]	koff [1] [s⁻¹]	kon [1] [M⁻¹ s⁻¹]	Ka [2] [M⁻¹]	Kd [2] [nM]	koff [2] [s⁻¹]	kon [2] [M⁻¹ s⁻¹]
recombinant HCIQ4c7 Kunitz-type peptide from Heteractis crispa (not fully specified; cysteine pairing not given here) IQGNICSEPKKVGRCRESFPRFYFDSETGKCTPFIYGGCGGNGNNFETLHACRAICRA	190	1.05e+06	955	0.0114	11900				
B1	52	7.9e+06	127	0.00861	68000				
pancreatic kallikrein (enzyme, Species and supplier are not given; porcine pancreatic kallikrein is assumed as the usual commercial enzyme. Limits are the active chain of the candidate entry. The natural enzyme is glycosylated …) not shown						2.04e+06	490	0.00379	49400
